Values quoted from earlier work, collected in article PMC8688582.

Biological target: CD25 (Homo sapiens) (UniProt P01589)
Test: ITC

UniProt P01589, sequence (P01589 22-240): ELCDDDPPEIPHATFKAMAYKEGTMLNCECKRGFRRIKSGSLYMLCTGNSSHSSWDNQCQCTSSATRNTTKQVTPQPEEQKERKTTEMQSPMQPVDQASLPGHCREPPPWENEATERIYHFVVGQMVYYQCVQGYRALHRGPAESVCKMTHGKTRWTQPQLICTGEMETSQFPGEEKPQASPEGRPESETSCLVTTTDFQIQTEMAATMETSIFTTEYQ

Kd: 10 nM
Substance: IL-2 (from UniProt P60568)
